From patent publication US9994886B2, “Modified Epstein-Barr virus DNA polymerase and methods for isothermal DNA amplification” (priority 2013, dated 2018)
Residue numbers refer to the chain shown, from its start. Names and notes keep the numbering of the source.

T1: GST-BMRF1(1-303) (Epstein-Barr virus, UniProt P03191)
T1 construct: A GST fusion with BMRF1 residues 1-303 was constructed and expressed in E. coli BL21*DE3; made in house; host or cells: E. coli BL21*DE3
T1 sequence (P03191 1-303): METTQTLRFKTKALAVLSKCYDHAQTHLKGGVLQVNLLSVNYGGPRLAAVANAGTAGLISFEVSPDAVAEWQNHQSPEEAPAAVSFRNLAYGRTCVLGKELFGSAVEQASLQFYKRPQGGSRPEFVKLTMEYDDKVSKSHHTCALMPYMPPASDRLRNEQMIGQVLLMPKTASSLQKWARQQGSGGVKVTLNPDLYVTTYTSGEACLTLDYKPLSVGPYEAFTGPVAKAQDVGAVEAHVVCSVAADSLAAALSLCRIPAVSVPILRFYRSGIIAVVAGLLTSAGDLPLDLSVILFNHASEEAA

B1: N160: BALF5 with deletion of the amino-terminal 160 residues (protein)
chain: VEFAVLSALKASTFDRRTPCRVSVEKVTRRSIMGYGNHAGDYHKITLSHPNSVCHVATWLQDKHGCRIFEANVDATRRFVLDNDFVTFGWYSCRRAIPRLQHRDSYAELEYDCEVGDLSVRREDSSWPSYQALAFDIECLGEEGFPTATNEADLILQISCVLWSTGEEAGRYRRILLTLGTCEDIEGVEVYEFPSELDMLYAFFQLIRDLSVEIVTGYNVANFDWPYILDRARHIYSINPASLGKIRAGGVCEVRRPHDAGKGFLRANTKVRITGLIPIDMYAVCRDKLSLSDYKLDTVARHLLGAKKEDVHYKEIPRLFAAGPEGRRRLGMYCVQDSALVMDLLNHFVIHVEVAEIAKIAHIPCRRVLDDGQQIRVFSCLLAAAQKENFILPMPSASDRDGYQGATVIQPLSGFYNSPVLVVDFASLYPSIIQAHNLCYSTMITPGEEHRLAGLRPGEDYESFRLTGGVYHFVKKHVHESFLASLLTSWLAKRKAIKKLLAACEDPRQRTILDKQQLAIKCTCNAVYGFTGVANGLFPCLSIAETVTLQGRTMLERAKAFVEALSPANLQALAPSPDAWAPLNPEGQLRVIYGDTDSLFIECRGFSESETLRFADALAAHTTRSLFVAPISLEAEKTFSCLMLITKKRYVGVLTDGKTLMKGVELVRKTACKFVQTRCRRVLDLVLADARVKEAASLLSHRPFQESFTQGLPVGFLPVIDILNQAYTDLREGRVPMGELCFSTELSRKLSAYKSTQMPHLAVYQKFVERNEELPQIHDRIQYVFVEPKGGVKGARKTEMAEDPAYAERHGVPVAVDHYFDKLLQGAANILQCLFDNNSGAALSVLQNFTARPPF
B2: C550: BALF5 with deletion of the carboxyl terminal 465 residues (protein)
chain: MASASLTMSGGLFYNPFLRPNKGLLKKPDKEYLRLIPKCFQTPGAAGVVDVRGPQPPLCFYQDSLTVVGGDEDGKGMWWRQRAQEGTARPEADTHGSPLDFHVYDILETVYTHEKCAVIPSDKQGYVVPCGIVIKLLGRRKADGASVCVNVFGQQAYFYASAPQGLDVEFAVLSALKASTFDRRTPCRVSVEKVTRRSIMGYGNHAGDYHKITLSHPNSVCHVATWLQDKHGCRIFEANVDATRRFVLDNDFVTFGWYSCRRAIPRLQHRDSYAELEYDCEVGDLSVRREDSSWPSYQALAFDIECLGEEGFPTATNEADLILQISCVLWSTGEEAGRYRRILLTLGTCEDIEGVEVYEFPSELDMLYAFFQLIRDLSVEIVTGYNVANFDWPYILDRARHIYSINPASLGKIRAGGVCEVRRPHDAGKGFLRANTKVRITGLIPIDMYAVCRDKLSLSDYKLDTVARHLLGAKKEDVHYKEIPRLFAAGPEGRRRLGMYCVQDSALVMDLLNHFVIHVEVAEIAKIAHIPCRRVLDDGQQIRVFSCLLAAAQKENF
B3: WT (1-404): full-length 50-kDa BMRF1 processivity factor subunit of EBV DNA polymerase, SEQ ID NO. 9 (protein)
chain: METTQTLRFKTKALAVLSKCYDHAQTHLKGGVLQVNLLSVNYGGPRLAAVANAGTAGLISFEVSPDAVAEWQNHQSPEEAPAAVSFRNLAYGRTCVLGKELFGSAVEQASLQFYKRPQGGSRPEFVKLTMEYDDKVSKSHHTCALMPYMPPASDRLRNEQMIGQVLLMPKTASSLQKWARQQGSGGVKVTLNPDLYVTTYTSGEACLTLDYKPLSVGPYEAFTGPVAKAQDVGAVEAHVVCSVAADSLAAALSLCRIPAVSVPILRFYRSGIIAVVAGLLTSAGDLPLDLSVILFNHASEEAAASTASEPEDKSPRVQPLGTGLQQRPRHTVSPSPSPPPPPRTPTWESPARPETPSPAIPSHSSNTALERPLAVQLARKRTSSEARQKQKHPKKVKQAFNPLI
modifications: Epstein-Barr Virus
B4: C95E: BMRF1 comprising a C95E mutation, a monomeric form of BMRF1 (protein, UniProt P03191 1-404, looked up, variant C95E)
DNA polymerase processivity …: B3 chain with C95E
B5: A107-550: BALF5 with internal deletion of residues 107-550 (protein)
chain: MASASLTMSGGLFYNPFLRPNKGLLKKPDKEYLRLIPKCFQTPGAAGVVDVRGPQPPLCFYQDSLTVVGGDEDGKGMWWRQRAQEGTARPEADTHGSPLDFHVYDILETVYTHILPMPSASDRDGYQGATVIQPLSGFYNSPVLVVDFASLYPSIIQAHNLCYSTMITPGEEHRLAGLRPGEDYESFRLTGGVYHFVKKHVHESFLASLLTSWLAKRKAIKKLLAACEDPRQRTILDKQQLAIKCTCNAVYGFTGVANGLFPCLSIAETVTLQGRTMLERAKAFVEALSPANLQALAPSPDAWAPLNPEGQLRVIYGDTDSLFIECRGFSESETLRFADALAAHTTRSLFVAPISLEAEKTFSCLMLITKKRYVGVLTDGKTLMKGVELVRKTACKFVQTRCRRVLDLVLADARVKEAASLLSHRPFQESFTQGLPVGFLPVIDILNQAYTDLREGRVPMGELCFSTELSRKLSAYKSTQMPHLAVYQKFVERNEELPQIHDRIQYVFVEPKGGVKGARKTEMAEDPAYAERHGVPVAVDHYFDKLLQGAANILQCLFDNNSGAALSVLQNFTARPPF
B6: ΔC903: BALF5 with deletion of the carboxyl-terminal 112 residues (protein)
chain: MASASLTMSGGLFYNPFLRPNKGLLKKPDKEYLRLIPKCFQTPGAAGVVDVRGPQPPLCFYQDSLTVVGGDEDGKGMWWRQRAQEGTARPEADTHGSPLDFHVYDILETVYTHEKCAVIPSDKQGYVVPCGIVIKLLGRRKADGASVCVNVFGQQAYFYASAPQGLDVEFAVLSALKASTFDRRTPCRVSVEKVTRRSIMGYGNHAGDYHKITLSHPNSVCHVATWLQDKHGCRIFEANVDATRRFVLDNDFVTFGWYSCRRAIPRLQHRDSYAELEYDCEVGDLSVRREDSSWPSYQALAFDIECLGEEGFPTATNEADLILQISCVLWSTGEEAGRYRRILLTLGTCEDIEGVEVYEFPSELDMLYAFFQLIRDLSVEIVTGYNVANFDWPYILDRARHIYSINPASLGKIRAGGVCEVRRPHDAGKGFLRANTKVRITGLIPIDMYAVCRDKLSLSDYKLDTVARHLLGAKKEDVHYKEIPRLFAAGPEGRRRLGMYCVQDSALVMDLLNHFVIHVEVAEIAKIAHIPCRRVLDDGQQIRVFSCLLAAAQKENFILPMPSASDRDGYQGATVIQPLSGFYNSPVLVVDFASLYPSIIQAHNLCYSTMITPGEEHRLAGLRPGEDYESFRLTGGVYHFVKKHVHESFLASLLTSWLAKRKAIKKLLAACEDPRQRTILDKQQLAIKCTCNAVYGFTGVANGLFPCLSIAETVTLQGRTMLERAKAFVEALSPANLQALAPSPDAWAPLNPEGQLRVIYGDTDSLFIECRGFSESETLRFADALAAHTTRSLFVAPISLEAEKTFSCLMLITKKRYVGVLTDGKTLMKGVELVRKTACKFVQTRCRRVLDLVLADARVKEAASLLSHRPFQESFTQGLPVGFLPVIDILNQAYTDLREGRVPMGELCFS

Key:
[1] = DNA polymerase activity in vitro of BALF5 deletion polypeptides; type: biochemical; conditions: with or without BMRF1, high and low ionic strength
GST-BMRF1(1-303) = molecular target: T1, GST-BMRF1(1-303); experiment: Binding of radiolabeled BALF5-deletion polypeptides to GST-BMRF1(1-303); conditions: 100 mM ammonium sulfate; [35S]-methionine labeled in vitro translated polypeptides
Protocol: To determine if the extreme carboxyl terminus of the EBV BALF5 subunit is necessary for functional interaction with BMRF1, a series of deletions of the BALF5 open reading frame was constructed in the pYES-X2 vector and [^35S]-methionine labeled polypeptides were expressed by in vitro transcription-translation as described (Kiehl, A. and D. I. Dorsky, J Virol, 1995, 69(3): p. 1669-77). These radiolabeled BALF5-deletion polypeptides were then assayed for binding to GST-BMRF1(1-303) in 100 mM ammonium sulfate. In vitro translated BALF5 bound to GST-BMRF1(1-303) but not to GST alone.

[2] = test system: activated calf thymus (CT) DNA; experiment: DNA polymerase elongation activity of purified BALF5 on activated calf thymus DNA; type: biochemical; conditions: BMRF1 at concentrations required for stimulation at high-salt
Protocol: When assayed in the presence of BMRF1, its activity on CT DNA at 100 mM ammonium sulfate was greater than 100-fold increased over its activity alone, in the absence of salt.

[3] = monomeric form of BMRF1; cited from earlier work

| Molecule | DNA polymerase activity in vitro [1] | binding to GST-BMRF1(1-303) (GST-BMRF1(1-303)) | effect on the low-salt activity of BALF5 [2] | EBVpol processivity [3] |
| --- | --- | --- | --- | --- |
| B1 | catalytically inactive | did not prevent binding | – | – |
| B2 | catalytically inactive | did not bind | – | – |
| B3 | – | – | did not appear to significantly decrease | – |
| B4 | – | – | – | can still efficiently catalyze EBVpol processivity |
| B5 | catalytically inactive | did not prevent binding | – | – |
| B6 | wild-type DNA polymerase activity | binding was preserved | – | – |
